Data published in patent US20250051471A1, “Anti-Abcb1 Antibodies” (WILLIAM ROBERT ARATHOON LIVING TRUST DATED AUGUST 29, 2016, priority 2021, published 2025).

Columns and labels:
Assay type in all cases: cell-based
[1] = system: cynomolgus Red Blood Cells; assay: Antibody binding to cynomolgus red blood cells by flow cytometry; conditions: percent of RBC in the R3 gate
Protocol: (§1) Antibody binding to human and cynomolgus RBC was assessed by flow cytometry. Normal human and cynomolgus whole blood was obtained from BiolVT. RBC were prepared by centrifugation of whole blood aliquots (0.5 mL) for 5 min at 500xg. Supernatant (plasma) was removed, and RBC washed 3 times in D-PBS+1 mM EDTA. After the final wash, the RBC were resuspended in D-PBS+1 mM EDTA to a final volume of 0.5 mL. Washed RBC were then diluted in flow cytometry buffer (D-PBS+2% FBS+0.05% sodium azide) to 2% and dispensed at […] into 96-well plates. An equivalent volume ([…]) of antibody serially diluted in flow cytometry buffer to 2× final was added to the RBC, and the mixture incubated for 1 hour at room temperature. Next, RBC were washed 3 times with flow cytometry buffer and resuspended in 50 μL of Alexa Fluor®647 conjugated Fab fragment goat anti-human IgG diluted 1:200 in flow cytometry buffer. After 20 minutes at room temperature RBC were washed twice, resuspended in flow cytometry buffer and analyzed using an Invitrogen™ Attune™ NXT flow cytometer. […] Left panel, RBC are gated (R1) based on forward and side scatter. Middle panel, a second gate (R2) is applied to eliminate any remaining doublets or aggregates. Right panel, fluorescence of the R2 gated cells is assessed and a final gate (R3) is set using unstained RBC. Cells falling in the R3 gate are defined as “positive” for binding and reported as the percent (of R2 gated cells) that fall in the R3 gate. The results are presented at percent positive which represents the percent of RBC in the R3 gate.

[2] = system: N6/ADR cells; assay: Cytotoxicity potency assay (antibody titrated, vincristine constant)
Protocol: The relative potency of the samples was evaluated using N6/ADR cells. These cells expressed both ABCB1 and CD47 with the expression of CD47 ˜40-fold higher than ABCB1 as determined by staining with R-phycoerythrin (R-PE) conjugated, commercially available antibodies against ABCB1 (UIC2, Biolegend) and CD47 (CC2C6, Biolegend). This assay also examined the effect of antibodies on vincristine-induced cytotoxicity using the drug-resistant cell line, N6/ADR. However, in this assay format the concentration of vincristine was held constant while the ABCB1 x CD47 BsAbs (or isotype control antibodies) were serially diluted. This assay measured antibody IC50. Lower IC50 meant higher antibody potency.
The potency assay was performed as follows. Cells were plated in 0.05 mL of assay media at 5000 cells/well in white flat bottom 96-well tissue culture plates and incubated overnight at 37° C., 5% CO2. […] An equivalent volume (0.05 mL) diluted antibody/vincristine mixture was transferred to the N6/ADR cells and incubated at 37° C., in 5% CO^2. After 72 hours, plates were removed from the incubator and allowed to equilibrate to room temperature. Viability was assessed using the Promega® CellTiter-Glo® Luminescent Cell Viability Assay according to the manufacturer's recommended protocol.

[3] = system: human Red Blood Cells; assay: Antibody binding to human red blood cells by flow cytometry; conditions: percent of RBC in the R3 gate
Protocol: as §1

Molecule | Binding to cynomolgus Red Blood Cells % Positive Cy744 ([1]; donor Cy744) [%] | Binding to cynomolgus Red Blood Cells % Positive Cy745 ([1]; donor Cy745) [%] | Binding to cynomolgus Red Blood Cells % Positive Cy747 ([1]; donor Cy747) [%] | potency increasing cytotoxicity [2] | Binding to human Red Blood Cells % positive D834 ([3]; donor D834) [%] | Binding to human Red Blood Cells % positive D835 ([3]; donor D835) [%] | Binding to human Red Blood Cells % positive D836 ([3]; donor D836) [%] | Binding to human Red Blood Cells % positive D837 ([3]; donor D837) [%]
15D3hmzhG1 HIR2/Fc/B1.89v1 huL1(KV2) hmz LC: humanized anti-ABCB1 mono arm antibody with B1.89v1 huL1(KV2) light chain (antibody, left off: another chain or arm of the molecule, humanized anti-ABCB1 mono arm antibody with B1.89v1 huL1(KV2) light chain) heavy: EVQLVESGGVVVQPGGSLRLSCAASGFTFSRYTMSWVRQAPGKGLEWVATISSGGGNTYYPDSVKGRFTVSRDNSKNSLYLQMNSLRTEDTALYYCARYGAGDAWFAYWGQGTLVTVSSASTKGPSVFPLAPSSKSTSGGTAALGCLVKDYFPEPVTVSWNSGALTSGVHTFPAVLQSSGLYSLSSVVTVPSSSLGTQTYICNVNHKPSNTKVDKRVEPKSCDKTHTCPPCPAPELLGGPSVFLFPPKPKDTLMISRTPEVTCVVVDVSHEDPEVKFNWYVDGVEVHNAKTKPREEQYNSTYRVVSVLTVLHQDWLNGKEYKCKVSNKALPAPIEKTISKAKGQPREPQVCTLPPSREEMTKNQVSLSCAVKGFYPSDIAVEWESNGQPENNYKTTPPVLDSDGSFVLVSKLTVDKSRWQQGNVFSCSVMHEALHNHYTQKSLSLSPG light: DIVMTQSPLSLPVTPGEPASISCRSSQTIVHSNGNTYLEWYLQKPGQSPQLLIYKVSKRFSGVPDRFSGSGSGTDFTLKISRVEAEDVGVYYCFQASHFPRTFGQGTKLEIKRTVAAPSVFIFPPSDEQLKSGTASVVCLLNNFYPREAKVQWKVDNALQSGNSQESVTEQDSKDSTYSLSSTLTLSKADYEKHKVYACEVTHQGLSSPVTKSFNRGEC | 0.3 | 0.6 | 4.0 | lesser potency than the corresponding bispecific antibodies | 0.2 | 0.2 | 0.1 | 0.1
15D3 hmz HIR2/Fc/B1VL6/CDR3v2a hmz: humanized anti-ABCB1 mono arm antibody with B1VL6/CDR3v2a light chain (antibody, left off: another chain or arm of the molecule; small tags and cut ends) heavy: EVQLVESGGVVVQPGGSLRLSCAASGFTFSRYTMSWVRQAPGKGLEWVATISSGGGNTYYPDSVKGRFTVSRDNSKNSLYLQMNSLRTEDTALYYCARYGAGDAWFAYWGQGTLVTVSSASTKGPSVFPLAPSSKSTSGGTAALGCLVKDYFPEPVTVSWNSGALTSGVHTFPAVLQSSGLYSLSSVVTVPSSSLGTQTYICNVNHKPSNTKVDKRVEPKSCDKTHTCPPCPAPELLGGPSVFLFPPKPKDTLMISRTPEVTCVVVDVSHEDPEVKFNWYVDGVEVHNAKTKPREEQYNSTYRVVSVLTVLHQDWLNGKEYKCKVSNKALPAPIEKTISKAKGQPREPQVCTLPPSREEMTKNQVSLSCAVKGFYPSDIAVEWESNGQPENNYKTTPPVLDSDGSFVLVSKLTVDKSRWQQGNVFSCSVMHEALHNHYTQKSLSLSPG light: DIVMTQSPLSLPVTPGEPASISCRSSQSLVHSNGNTYLEWYLQKPGQSPQLLIYKVSNRFSGVPDRFSGSGSGTDFTLKISRVEAEDVGVYYCFQGSHFPRTFGQGTKLEIKRTVAAPSVFIFPPSDEQLKSGTASVVCLLNNFYPREAKVQWKVDNALQSGNSQESVTEQDSKDSTYSLSSTLTLSKADYEKHKVYACEVTHQGLSSPVTKSFNRGEC |  |  |  | lesser potency than the corresponding bispecific antibodies |  |  |  | 
